Data set [1] can be described thus: Distribution of labeled PEG-ADA2-K374D in CT26 peritibial tumors (IVIS fluorescent imaging). The settings on record: for Fluorescent intensity at tumor: 0.5 mg/kg IV. Format: in vivo, Balb/C mice. As for the experimental part: To assess the distribution and elimination of administered PEG-ADA2-K374D in the tumor microenvironment or in normal organs, immunofluorescence was used to assess the presence of PEG-ADA2-K374D administered to mice. PEG-ADA2-K374D was labeled at room temperature for 60 minutes with DyLight755 Sulfydryl-Reactive Dye (DL755), a near-IR fluor, using the DyLight 755 Antibody Labeling Kit (Thermo Scientific, Rockford, Ill.). Alexa Fluor 750 (AF 750) labeled bovine serum albumin (BSA, 1 mg/mL) was purchased from (Life Technology, Carlsbad, Calif.).
CT26 syngeneic tumors were produced by injecting 2×10^5 cells in 0.05 mL injection volume per animal into the right peritibial muscle of male Balb/C mice. When average tumor size reached 600 mm^3, tumor-bearing mice were staged into 2 groups (n=4/group) to receive either PEG-ADA2-K374D^DL755 at 0.5 mg/kg or BSA^AF750 at 0.5 mg/kg intravenously. The distribution of DL755 labeled PEG-ADA2-K374D (PEG-ADA2-K374D^DL755) and AF 750 labeled BSA (BSA^AF750) in mouse tumors was assessed using the IVIS Caliper fluorescent imaging system with an excitation wavelength of 745 nm and an emission wavelength of 800 nm (Caliper Life Sciences, Alameda, Calif.) and signal intensity was measured with LivingImage software. Images were captured before administration of labeled proteins and at 10 minute, 2, 6 hours and daily after administration of labeled proteins.

Data set [2] is described as follows: Heparin binding ELISA (heparin coated microtiter plate). Conditions: single and S265N combination variants (Table 34). In outline: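 Plates coated with 200 μg/mL heparin in Na2CO3 buffer pH 9.6 overnight at 4° C, then milk-blocked. FLAG-tagged rHuADA2 variants added at 3 μM for 2 h at room temperature. Bound protein detected with HRP-anti-FLAG and TMB, read as OD450.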

A short description of data set [3]: Kinetic assessment of adenosine deaminase activity (ammonia assay, Michaelis-Menten). It counts as biochemical. The settings on record: [E] = 8.5 nM; for kcat: kcat=Vmax/0.0085/60. In outline:
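Coupled ammonia assay: rHuADA2 WT or variants (1 μg/mL, 17 nM in 2× mix) with adenosine 20 μM–20 mM, α-ketoglutarate, NADPH and GDH, at pH 7.6 or pH 6.5 (PIPES), room temperature. Michaelis-Menten fit gave Km, Vmax, kcat, kcat/Km.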

Data set [4] can be described thus: Thermal stability by differential scanning fluorimetry (DSF). It counts as physicochemical. Conditions: 0.1-1 mg/mL protein. As for the experimental part:
The stability of the rHuADA2 WT and variants was measured by differential scanning fluorimetry (DSF) at increasing temperatures. DSF measures conformational stability, which correlates with thermal stability. The melting temperature (Tm) in DSF is defined as the midpoint of the protein unfolding transition.
Non-PEGylated WT rHuADA2, non-PEGylated rHuADA2 variants, and PEGylated forms of WT rHuADA2 and rHuADA2 variants were prepared at concentrations of 0.1-1 mg/mL and mixed with the ROX™ protein thermal shift dye (Applied Biosystems, Carlsbad, Calif.; Cat. No. 4461146) to a final dye concentration that corresponds to a 125-fold dilution of the stock ROX™ solution. Protein samples were then loaded into 96-well plate at a volume of 20 μL/well in triplicate. A ViiA7 RT-PCR System (Applied Biosystems, Carlsbad, Calif.) was used to measure the shift in fluorescence as the temperature of the samples were increased. The reactions were subjected to the following steps: incubation at 25° C. for 2 min; ramping of temperature from 25 to 99° C. at a rate of 0.05° C. per second; followed by a 99° C. incubation for 2 min. The wavelengths used for emission and excitation were 623 nanometers (nm) and 580 nm, respectively.

A short description of data set [5]: Spectrophotometric adenosine deaminase assay at varying pH (pH optimum). Format: biochemical. The procedure:
Adenosine deaminase activity of rHuADA2 and variants at varying pH were assessed to determine the pH optimum of each. The adenosine deaminase activity was determined spectrophotometrically by direct measurement of changes in adenosine absorbance. […] During the deamination reaction, the absorbance of ADO decreases while that of INO increases with time. Since the dynamic changes in absorbance make it difficult to monitor activity at a single wavelength, the relative ADO activity was determined as a ratio of the ADO peak to isobestic point (i.e. the wavelength where ADO and INO have the same extinction coefficient). The isobestic point, which is 253 nm, remains unchanged and is concentration independent, so that it is the reference point to correct for volume or intensity discrepancies.
To construct the standard curve for ADO and INO, a series of solution mixtures in 0.001% Tween-20 containing different concentrations of ADO and INO were prepared. The total concentration of ADO and INO mix was 50 μM, in 1×PBS (10 mM phosphate, 137 mM NaCl, 2.7 mM KCl), pH 7.4. The samples were scanned with the wavelengths between 220 nm and 300 nm to determine the isosbestic point, where all spectra cross.
For performing the spectrophotometric adenosine deaminase assay of ADA2 and variants, a 2× solution containing 10 mM ADO in 100 mM potassium phosphate buffer (KPB), 0.1% Tween-20 at different pHs (i.e. 5.5, 6, 6.5, 6.75, 7, 7.25, 7.4, 7.75 and 8) were prepared. A separate 2× solution containing 2 μg/mL WT rHuADA2 or variants were prepared in the same 100 mM potassium phosphate buffer (KPB), 0.1% Tween-20 at the respective pH (i.e. 5.5, 6, 6.5, 6.75, 7, 7.25, 7.4, 7.75 and 8). An equal volume of the ADO solution and the ADA2 solution (wildtype or variants) were mixed to initiate reaction. At each time point (i.e. 1, 3, 5, 7, 9, 11, 13 and 15 min), a small aliquot (4 μl) was removed and diluted 50 times by adding to 196 μl 1×PBS, pH 7.4. The diluted samples were further diluted 2 fold (in duplicates) by adding 85 μl samples to 85 μl 1×PBS in a UV-transparent half area plate. The absorbance at 253 nm and 261 nm were measured of each diluted sample.
Adenosine concentration was determined using the A261/A253 ratio and the standard curve. Adenosine deaminase activity was measured by negative change in ADO concentration per min×100.

On to “BSA^AF750: Alexa Fluor 750 (AF 750) labeled bovine serum albumin, control agent”, for which the “Fluorescent intensity at tumor” value in data set [1] (Hour 0.2) amounted to 2.95E+09; in data set [1] (Hour 2) it was 3.92E+09; in data set [1] (Hour 6), 4.64E+09; in data set [1] (Hour 24), 3.18E+09; in data set [1] (Hour 48) it was 1.94E+09; in data set [1] (Hour 72), 1.30E+09. The “Fluorescent intensity at tumor” value in data set [1] (Hour 96) turned out to be 9.86E+08; in data set [1] (Hour 144) it was 7.78E+08; in data set [1] (Hour 168) it was 6.39E+08; in data set [1] (Hour 196), 6.59E+08; in data set [1] (Hour −1 (before administration)), 7.86E+08. This molecule also gave an eliminated from tumors in data set [1] (day 6 post injection, 0.5 mg/kg intravenously) of around 100%.

B1: S265N/R23E/K374D: ADA2 combination variant SEQ ID NO:62 (protein)
chain: IDETRAHLLLKEKMMRLGGELVLNTKEELANERLMTLKIAEMKEAMRTLIFPPSMHFFQAKHLIERSQVFNILRMMPKGAALHLHDIGIVTMDWLVRNVTYRPHCHICFTPRGIMQFRFAHPTPRPSEKCSKWILLEDYRKRVQNVTEFDDSLLRNFTLVTQHPEVIYTNQNVVWSKFETIFFTISGLIHYAPVFRDYVFRSMQEFYEDNVLYMEIRARLLPVYELSGEHHDEEWSVKTYQEVAQKFVETHPEFIGIKIIYNDHRSKDVAVIAESIRMAMGLRIKFPTVVAGFDLVGHEDTGHSLHDYKEALMIPAKDGVKLPYFFHAGETDWQGTSIDRNILDALMLNTTRIGHGFALSKHPAVRTYSWDKDIPIEVCPISNQVLKLVSDLRNHPVATLMATGHPMVISSDDPAMFGAKGLSYDFYEVFMGIGGMKADLRTLKQLAMNSIKYSTLLESEKNTFMEIWKKRWDKFIADVATK
modifications: human ADA2 S262N/R20E/K371D, mature numbering
In the case of B1, in data set [2], the “Heparin Binding ELISA Average OD450” value came to 0.69. Moreover, the results for the Km in data set [3] (pH 6.5) and in data set [3] (pH 7.6) were 1500 µM and 3130 µM, respectively. Further, the Vmax in data set [3] (pH 6.5) is 43.42 µM/min; in data set [3] (pH 7.6) it was 72.78 µM/min. Further, the turnover number (kcat) was 85.14 s⁻¹ in data set [3] (pH 6.5) and 142.71 s⁻¹ in data set [3] (pH 7.6). For the same molecule, the “Tm, melting temperature by DSF” value in data set [4] is 59.8 °C. Further, the “Adenosine deaminase activity Δ [ADO]/min × (−100)” value is recorded as 20.27 in data set [5] (pH 5.5); 28.16 in data set [5] (pH 6); 35.51 in data set [5] (pH 6.5); 33.24 in data set [5] (pH 6.75); 40.08 in data set [5] (pH 7); 42.28 in data set [5] (pH 7.25). For the same molecule, the “Adenosine deaminase activity Δ [ADO]/min × (−100)” value in data set [5] (pH 7.4) worked out at 34.66; in data set [5] (pH 7.75) it was 18.46; in data set [5] (pH 8) it was 4.94.

These data come from US9969998B2, “Compositions of adenosine deaminase-2 (ADA2), variants thereof and methods of using same” (Halozyme, Inc., priority 2014, dated 2018).
